This note sets out measurements from paper PMC3811051 (Nature methods, 2013).

This data set concerns the molecule itself. The experiment in a line: SEC. For orientation: SEC sorts molecules by how far they enter the pores of the column.

B1: LanYFP, yellow fluorescent protein from Branchiostoma lanceolatum (natural protein, UniProt B1PNC0 1-219, looked up)
chain: MSLPATHELHIFGSFNGVDFDMVGRGTGNPNDGYEELNLKSTKGALQFSPWILVPQIGYGFHQYLPFPDGMSPFQAAMKDGSGYQVHRTMQFEDGASLTSNYRYTYEGSHIKGEFQVIGTGFPADGPVMTNSLTAADWCVTKMLYPNDKTIISTFDWTYTTGSGKRYQSTVRTNYTFAKPMAANILKNQPMFVFRKTELKHSKTELNFKEWQKAFTDVM
Broadly, the stoichiometry N is a count of units in the complex or per binding partner. B1: the “stoichiometry N” value was determined as 4.
